# Experimental data taken from patent US20130052176, “APTAMER FOR NGF AND USE THEREOF” (SHIONOGI & CO., LTD, published 2013).
# B1: aptamer ID 55 (ssRNA)
# RNA: GGGAUAAAAAUAGAGUUUGAUAAACACCUGUAUUAAAACCC
# modifications: 5' cholesterol; 3' idT; 2'-F pyrimidines and a37,a38; 2'-OMe other purines except 2'-OH at 4,7,30
# B2: aptamer ID 57 (mixed)
# mixed: GGGAUAAAAAUAGAGTUUGATAAACACCUGUAUUAAAACCC
# modifications: 5' cholesterol; 3' idT; dT16,dT21; 2'-F other pyrimidines and a37,a38; 2'-OMe purines except ribo a4,a7,g30
# B3: aptamer ID 60 (mixed)
# mixed: GGGAUAAAAAUAGAGTUUGATAUACACCUGUAUUAAAACCC
# modifications: 5' cholesterol; 3' idT; 2'-F pyrimidines (except dT at 16,21) and a37,a38; 2'-OMe other purines except 2'-OH at 4,7,30
# B4: aptamer ID 57(7) (mixed)
# mixed: GGGAUAAAAAUAGAGTUUGATAAACACCUGUAUUAAAACCC
# modifications: as ID 57 (5' cholesterol; 3' idT; dT16,dT21; 2'-F other pyrimidines and a37,a38; 2'-OMe purines except ribo a4,a7,g30) plus PS between 23 and 24
# B5: aptamer ID 61 (mixed)
# mixed: GGGAUAAAAAUAGAGTUUGATAAACACCUGUAUUAAAACCC
# modifications: 5' cholesterol; 3' idT; 2'-F pyrimidines (except dT at 16,21) and a38; 2'-OMe other purines except 2'-OH at 4,7,30,37
# B6: aptamer ID 62 (mixed)
# mixed: GGGAUAAAAAUAGAGTUUGATAAACACCUGUAUUAAAACCC
# modifications: 5' cholesterol; 3' idT; 2'-F pyrimidines (except dT at 16,21) and a37; 2'-OMe other purines except 2'-OH at 4,7,30,38
# B7: aptamer ID 57(2) (mixed)
# mixed: GGGAUAAAAAUAGAGTUUGATAAACACCUGUAUUAAAACCC
# modifications: as ID 57 (5' cholesterol; 3' idT; dT16,dT21; 2'-F other pyrimidines and a37,a38; 2'-OMe purines except ribo a4,a7,g30) plus PS between 16 and 17
# B8: aptamer ID 57(6) (mixed)
# mixed: GGGAUAAAAAUAGAGTUUGATAAACACCUGUAUUAAAACCC
# modifications: as ID 57 (5' cholesterol; 3' idT; dT16,dT21; 2'-F other pyrimidines and a37,a38; 2'-OMe purines except ribo a4,a7,g30) plus PS between 22 and 23
# B9: aptamer ID 56 (mixed)
# mixed: GGGAUAAAAAUAGAGUUUGATAAACACCUGUAUUAAAACCC
# modifications: 5' cholesterol; 3' idT; 2'-F pyrimidines (except dT at 21) and a37,a38; 2'-OMe other purines except 2'-OH at 4,7,30
# B10: aptamer ID 57(8) (mixed)
# mixed: GGGAUAAAAAUAGAGTUUGATAAACACCUGUAUUAAAACCC
# modifications: as ID 57 (5' cholesterol; 3' idT; dT16,dT21; 2'-F other pyrimidines and a37,a38; 2'-OMe purines except ribo a4,a7,g30) plus PS between 24 and 25
# B11: aptamer ID 48 (ssRNA)
# RNA: GGGAGAACUUCGACCAGAGUCGAUAACGAACAAAACUCCCAAAUAUGUGCGCAUAC
# modifications: 2'-F all pyrimidines
# B12: aptamer ID 26(17) (ssRNA)
# RNA: GGGAGACUCGCCAGAGUUGAAAGAAACCCAAAUAAGUGUGCGCAC
# modifications: 2'-F pyrimidines; 2'-OMe purines except 2'-OH at 3,5,19-22,24,26; 5' idT; 3' PEG40GS2 (amino C-6 linker)
# B13: aptamer ID 26(69) (ssRNA)
# RNA: GGGAGACUCGCCAGAGUUGAAAGAAACCCAAAUAAGUGUGCGCAC
# modifications: 5' PEG40TS4 via ssH linker; 3' idT; 2'-F all pyrimidines; 2'-OMe purines except ribo g3,g19,a20,a26
# B14: aptamer ID 26(55) (mixed)
# RNA: GGGAGACUCGCCAGAGUUGAAAGAAACCCAAAUAAGUGUGCGCAC
# modifications: 5' and 3' idT; 2'-OMe purines except ribo g3,g19,a20,a26; 2'-F c27,c28,c41,c43; dC29,dT39; other pyrimidines 2'-OMe
# B15: aptamer ID 26(71) (ssRNA)
# RNA: GGGAGACUCGCCAGAGUUGAAAGAAACCCAAAUAAGUGUGCGCAC
# modifications: 5' PEG80TS4 via C6 amino linker (Tb); 3' idT; 2'-OMe purines except ribo g3,g19,a20,a26; 2'-F c27,c28,c29,c41,c43; other pyrimidines 2'-OMe
# B16: aptamer ID 26(36) (ssRNA)
# RNA: GGGAGACUCGCCAGAGUUGAAAGAAACCCAAAUAAGUGUGCGCAC
# modifications: 2'-F pyrimidines except 2'-OMe at 7; 2'-OMe purines except 2'-OH at 3,19,20,26; PS between 3 and 4; 5' idT and 3' idT
# B17: aptamer ID 26(53) (mixed)
# RNA: GGGAGACUCGCCAGAGUUGAAAGAAACCCAAAUAAGUGUGCGCAC
# modifications: 2'-F pyrimidines except 2'-OMe at 7,8,9,11,12,17,18,33,37,45; 2'-OMe purines except 2'-OH at 3,19,20 and dA at 26; 5' idT and 3' idT
# B18: aptamer ID 26(54) (mixed)
# RNA: GGGAGACUCGCCAGAGUUGAAAGAAACCCAAAUAAGUGUGCGCAC
# modifications: 5' and 3' idT; 2'-OMe purines except ribo g3,g19,a20,a26; 2'-F c28,u39,c41,c43; dC27,dC29; other pyrimidines 2'-OMe
# B19: aptamer ID 26(61) (ssRNA)
# RNA: GGGAGACUCGCCAGAGUUGAAAGAAACCCAAAUAAGUGUGCGCAC
# modifications: 2'-F pyrimidines except 2'-OMe at 7,8,9,11,12,17,18,33,37,45 and LNA at c29; 2'-OMe purines except 2'-OH at 3,19,20,26; 5' idT and 3' idT
# B20: aptamer ID 26(68) (ssRNA)
# RNA: GGGAGACUCGCCAGAGUUGAAAGAAACCCAAAUAAGUGUGCGCAC
# modifications: 5' PEG80TS2 via ssH linker; 3' idT; 2'-F all pyrimidines; 2'-OMe purines except ribo g3,g19,a20,a26
# B21: aptamer ID 26(37) (ssRNA)
# RNA: GGGAGACUCGCCAGAGUUGAAAGAAACCCAAAUAAGUGUGCGCAC
# modifications: 2'-F pyrimidines except 2'-OMe at 7; 2'-OMe purines except 2'-OH at 3,19,20,26; PS between 18 and 19; 5' idT and 3' idT
# B22: aptamer ID 26(72) (mixed)
# RNA: GGGAGACUCGCCAGAGUUGAAAGAAACCCAAAUAAGUGUGCGCAC
# modifications: 5' PEG80TS4 via C6 amino linker (Tb); 3' idT; 2'-OMe purines except ribo g3,g19,a20,a26; 2'-F c28,c41,c43; dC27,dC29; other pyrimidines 2'-OMe
# How the values were obtained:
# [1] = target: T1, NGF (nerve growth factor) (human, UniProt P01138 P01138:122-241); test: cell_activity; neurite outgrowth, NGF 1.1 nM; SPR binding; blocks NGF-TrkA; TF-1 IC50 8.0 nM; details: tags: amine-coupled to CM5 chip in SPR; soluble in cell assays; chain copies: 2
# Method: (§1) The neurite outgrowth inhibitory activity of the aptamer obtained in Example 1 was evaluated by using Neuroscreen-1 cell, which is a subclone of PC-12 cells.
# (§2) The cells (2500 cells per well) were cultured for one day in an RPMI-1640 medium containing 2.5% horse serum and 1.25% fetal bovine serum in a 96 well flat-bottom plate coated with collagen type IV. […] Two days later, the cytoplasm and nuclei were stained using Cellomics Neurite Outgrowth Kit (manufactured by Thermo Scientific), and neurite length per cell was measured by Cellomics ArrayScan VTI (manufactured by Thermo Scientific). With the neurite length per cell obtained by the addition of NGF alone as inhibitory activity 0%, and that of the cell obtained by NGF free culture for 2 days as inhibitory activity 100%, the inhibitory activity of the aptamer was calculated from the neurite length per cell obtained by culturing with the addition of NGF and the aptamer in mixture. When the inhibitory activity was 0% or below, ‘0%’ is indicated.
# [2] = target: T1, NGF (nerve growth factor); test: cell_activity; neurite outgrowth, NGF 1.1 nM; details: tags: human NGF; chain copies: 2
# Method: as §1, §2
# [3] = target: T1, NGF (nerve growth factor); test: cell_activity; neurite outgrowth, NGF 1.1 nM; SPR binding; TF-1 IC50 5.4 nM; details: tags: amine-coupled to CM5 chip in SPR; soluble in cell assays; chain copies: 2
# Method: as §1, §2
# [4] = target: T1, NGF (nerve growth factor); test: cell_activity; neurite outgrowth, NGF 1.1 nM; TF-1 IC50 5.3 nM; details: tags: human NGF; chain copies: 2
# Method: as §1, §2
# [5] = target: T1, NGF (nerve growth factor); test: cell_activity; neurite outgrowth, NGF 1.1 nM; SPR binding; blocks NGF-TrkA and NGF-p75; TF-1 IC50 1.3 nM; details: tags: amine-coupled to CM5 chip in SPR; soluble in cell assays; chain copies: 2
# Method: as §1, §2
# [6] = target: T1, NGF (nerve growth factor); test: cell_activity; neurite outgrowth, NGF 1.1 nM; SPR binding; TF-1 IC50 6.3 nM; details: tags: amine-coupled to CM5 chip in SPR; soluble in cell assays; chain copies: 2
# Method: as §1, §2
# [7] = target: T1, NGF (nerve growth factor); test: cell_activity; neurite outgrowth, NGF 1.1 nM; TF-1 IC50 6.2 nM; details: tags: human NGF; chain copies: 2
# Method: as §1, §2
# [8] = target: T1, NGF (nerve growth factor); test: cell_activity; neurite outgrowth, NGF 1.1 nM; SPR binding; blocks NGF-TrkA and NGF-p75; details: tags: amine-coupled to CM5 chip in SPR; soluble in cell assays; chain copies: 2
# Method: as §1, §2
# [9] = target: T1, NGF (nerve growth factor); test: cell_activity; neurite outgrowth, NGF 0.38 nM; not tested by SPR; TF-1 IC50 <0.1 nM; details: tags:; soluble in cell assays; chain copies: 2
# Method: as §1, §2
# [10] = target: T1, NGF (nerve growth factor); test: cell_activity; neurite outgrowth, NGF 0.38 nM; TF-1 IC50 0.348 nM; details: tags: human NGF; chain copies: 2
# Method: as §1, §2
# [11] = target: T1, NGF (nerve growth factor); test: cell_activity; neurite outgrowth, NGF 0.38 nM; TF-1 IC50 0.075 nM; details: tags: human NGF; chain copies: 2
# Method: as §1, §2
# [12] = target: T1, NGF (nerve growth factor); test: cell_activity; neurite outgrowth, NGF 0.38 nM; TF-1 IC50 0.065 nM; details: tags: human NGF; chain copies: 2
# Method: as §1, §2
# [13] = target: T1, NGF (nerve growth factor); test: cell_activity; neurite outgrowth, NGF 0.38 nM; SPR binding; TF-1 IC50 >0.3 nM; details: tags: amine-coupled to CM5 chip in SPR; soluble in cell assays; chain copies: 2
# Method: as §1, §2
# [14] = target: T1, NGF (nerve growth factor); test: cell_activity; neurite outgrowth, NGF 0.38 nM; SPR binding; TF-1 IC50 0.078 nM; details: tags: amine-coupled to CM5 chip in SPR; soluble in cell assays; chain copies: 2
# Method: as §1, §2
# T1 sequence (P01138 122-241, one chain of several): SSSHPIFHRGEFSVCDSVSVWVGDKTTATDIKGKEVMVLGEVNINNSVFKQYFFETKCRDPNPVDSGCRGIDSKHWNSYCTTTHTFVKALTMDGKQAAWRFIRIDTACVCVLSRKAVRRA
binder,measurement,setting,value
B1,IC50,[1],9.8 nM
B2,IC50,[2],< 3 nM
B3,IC50,[3],< 3 nM
B4,IC50,[4],< 3 nM
B5,IC50,[5],< 3 nM
B6,IC50,[6],4.6 nM
B7,IC50,[7],< 3 nM
B8,IC50,[4],< 3 nM
B9,IC50,[8],4.1 nM
B10,IC50,[7],< 3 nM
B11,IC50,[2],1.8 nM
B12,IC50,[9],< 0.1 nM
B13,IC50,[10],0.157 nM
B14,IC50,[11],0.087 nM
B15,IC50,[12],0.279 nM
B16,IC50,[13],0.211 nM
B17,IC50,[14],0.128 nM
B18,IC50,[12],0.097 nM
B19,IC50,[14],0.112 nM
B20,IC50,[10],0.128 nM
B21,IC50,[13],0.181 nM
B22,IC50,[11],0.219 nM
